± gives the uncertainty stated by the source.
Experiment: self-splicing fitness, log relative to wild type (ln ratio); higher = more splicing; Tetrahymena group I intron in knt gene, E. coli kanamycin selection, DiMSum; sequences stand for … in CUCUCU…GGAGGGAAAAGUUAUCAGGCAUGCACCUGGUAGCUAGUCUUUAAACCAAUAGAUUGCAUCGGUUUAAAAGGCAAGACCGUCAAAUUGCGGGAAAGGGGUCAACAGCCGUUCAGUACCAAGUCUCAGGGGAAACUUUGAGAUGGCCUUGCAAAGGGUAUGGUAAUAAGCUGACGGACAUGGUCCUAACCACGCAGCCAAGUCCUAAGUCAACAGAUCUUCUGUUGAUAUGGAUGCAGUUCACAGACUAAAUGUCGGUCGGGGAAGAUGUAUUCUUCUCAUAAGAUAUAGUCGGACCUCUCCUUAAUGGGAGCUAGCGGAUGAAGUGAUGCAACACUGGAGCCGCUGGGAACUAAUUUGUAUGCGAAAGUAUAUUGAUUAGUUUUGGAGUACUCGUGGUCG
Method in brief: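 The eight P1ex-region nucleotides of an intron in the knt kanamycin-resistance gene on pET-22b(+) were all randomised and the library put into E. coli BL21(DE3). Six replicate transformations were grown overnight at 37°C or 30°C on LB agar with or without 25 μg/mL kanamycin, together with 100 μg/mL carbenicillin, 50 μM IPTG and 0.2% rhamnose. Colonies were pooled and amplicon-sequenced on an Illumina HiSeq 2500. Fitness from DiMSum is the error-weighted combination of wild-type-normalised replicate fold changes, kanamycin over none.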

Sequence	self-splicing fitness (ln) (30 °C)	self-splicing fitness (ln) (37 °C)
AUUUAGCAAUAUUACGCUGU	-1.33 ± 0.14	-1.01 ± 0.16
AUUUAGCAAUAUUACGGACA	-1.34 ± 0.27	-0.739 ± 0.27
AUUUAGCAAUAUUACGGACG	-2.26 ± 0.24	-1.75 ± 0.24
AUUUAGCAAUAUUACGGACU	0.0925 ± 0.11	0.805 ± 0.13
AUUUAGCAAUAUUACGGAUG	-1.94 ± 0.14	-1.91 ± 0.2
AUUUAGCAAUAUUACGGCAC	-0.95 ± 0.27	
AUUUAGCAAUAUUACGGCGC	-0.408 ± 0.16	-0.248 ± 0.22
AUUUAGCAAUAUUACGGCUC	-0.153 ± 0.097	0.0525 ± 0.11
AUUUAGCAAUAUUACGGCUG	-0.937 ± 0.12	-0.723 ± 0.13
AUUUAGCAAUAUUACGGGAC	-2.36 ± 0.32	-1.32 ± 0.26
AUUUAGCAAUAUUACGGGUC		-2.23 ± 0.34
AUUUAGCAAUAUUACGGUGC	-4.12 ± 0.46	-1.55 ± 0.23
AUUUAGCAAUAUUACGGUUG	-2.68 ± 0.39	
AUUUAGCAAUAUUACGUACG	-1.48 ± 0.19	-1.66 ± 0.34
AUUUAGCAAUAUUACGUAUG	-2.35 ± 0.34	-0.838 ± 0.41
AUUUAGCAAUAUUACGUGUC	-2.55 ± 0.42	-2.87 ± 0.43
AUUUAGCAAUAUUACGUUAG	-3.03 ± 0.47	-2.61 ± 0.25
AUUUAGCAAUAUUACGUUUG	-3.78 ± 0.21	-1.25 ± 0.16
CAAAAGCAAUAUUACGAAGU	-3.16 ± 0.15	-2.23 ± 0.13
CAAAAGCAAUAUUACGACGC	-0.886 ± 0.092	-1.14 ± 0.14
CAAAAGCAAUAUUACGAUUG	-2.75 ± 0.087	-1.82 ± 0.1
CAAAAGCAAUAUUACGCAGA	-2.57 ± 0.25	-1.49 ± 0.17
CAAAAGCAAUAUUACGCCAC	-2.1 ± 0.24	-1.89 ± 0.34
CAAAAGCAAUAUUACGCGCU	-3.18 ± 0.14	-0.642 ± 0.1
CAAAAGCAAUAUUACGCUGC	-3.02 ± 0.25	-3.03 ± 0.29
CAAAAGCAAUAUUACGGACC	-3 ± 0.21	-1.98 ± 0.2

Sequence	self-splicing fitness (ln) (30 °C)	self-splicing fitness (ln) (37 °C)
CAAAAGCAAUAUUACGGAGC	-2.95 ± 0.18	-2.84 ± 0.25
CAAAAGCAAUAUUACGGCCA	-1.68 ± 0.21	-0.283 ± 0.16
CAAAAGCAAUAUUACGGGAC	-3.76 ± 0.35	-1.71 ± 0.17
CAAAAGCAAUAUUACGGUAC	-3.79 ± 0.23	-1.24 ± 0.18
CAAAAGCAAUAUUACGUGUA	-3.88 ± 0.16	-2.25 ± 0.1
CAAAAGCAAUAUUACGUUAA	-2.65 ± 0.16	-2.06 ± 0.12
CAAAAGCAAUAUUACGUUGC	-3.74 ± 0.18	-3.17 ± 0.23
CAAAAGCAAUAUUACGUUUC	-3.1 ± 0.28	-2.76 ± 0.2
CAACAGCAAUAUUACGACUU	-0.591 ± 0.058	-0.268 ± 0.074
CAACAGCAAUAUUACGAGCG	-0.235 ± 0.051	0.702 ± 0.077
CAACAGCAAUAUUACGAUCC	-2.87 ± 0.2	-1.4 ± 0.16
CAACAGCAAUAUUACGAUGC	-3.08 ± 0.15	-2.01 ± 0.16
CAACAGCAAUAUUACGCACA	-1.23 ± 0.077	-0.561 ± 0.083
CAACAGCAAUAUUACGCCGA	-2.35 ± 0.18	-1.76 ± 0.17
CAACAGCAAUAUUACGCCGC	-4.57 ± 0.34	
CAACAGCAAUAUUACGCCUU	-2.95 ± 0.11	-1.1 ± 0.081
CAACAGCAAUAUUACGCGGC	-3.03 ± 0.21	-2.09 ± 0.23
CAACAGCAAUAUUACGGAAG	-0.947 ± 0.045	-0.607 ± 0.061
CAACAGCAAUAUUACGGACC	-2.98 ± 0.27	-0.864 ± 0.23
CAACAGCAAUAUUACGGAGC	-2.28 ± 0.15	-3.18 ± 0.27
CAACAGCAAUAUUACGGAGU	-3.71 ± 0.17	-1.22 ± 0.12
CAACAGCAAUAUUACGGCUA	-1.28 ± 0.073	-0.553 ± 0.073
CAACAGCAAUAUUACGGCUG	-1.27 ± 0.077	-1.24 ± 0.11
CAACAGCAAUAUUACGGUAA	-1.71 ± 0.089	-1.61 ± 0.094
CAACAGCAAUAUUACGGUUG	-3.26 ± 0.1	-2.27 ± 0.12
CAACAGCAAUAUUACGUAAA	-2.42 ± 0.069	-1.91 ± 0.098

Sequence	self-splicing fitness (ln) (30 °C)	self-splicing fitness (ln) (37 °C)
CAACAGCAAUAUUACGUAGC	-4.19 ± 0.12	-2.49 ± 0.12
CAACAGCAAUAUUACGUAGU	-3.22 ± 0.12	-1.91 ± 0.11
CAACAGCAAUAUUACGUCCA	-1.75 ± 0.11	-1.35 ± 0.13
CAACAGCAAUAUUACGUCGA	-1.37 ± 0.09	-0.379 ± 0.077
CAACAGCAAUAUUACGUGUA	-2.41 ± 0.076	-1.76 ± 0.075
CAAGAGCAAUAUUACGAACA		-2.49 ± 0.33
CAAGAGCAAUAUUACGAAGC	-3.5 ± 0.23	-2.86 ± 0.24
CAAGAGCAAUAUUACGAGGA	-3.17 ± 0.33	-2.79 ± 0.44
CAAGAGCAAUAUUACGAUCA	-1.72 ± 0.16	-2.02 ± 0.24
CAAGAGCAAUAUUACGAUGU	-3.88 ± 0.23	-2.73 ± 0.25
CAAGAGCAAUAUUACGCUGG	-3.84 ± 0.3	-1.99 ± 0.19
CAAGAGCAAUAUUACGCUUG		-2.99 ± 0.47
CAAGAGCAAUAUUACGGAGA	-2.57 ± 0.28	-1.91 ± 0.22
CAAGAGCAAUAUUACGGAUU	-3.03 ± 0.25	-3.21 ± 0.37
CAAGAGCAAUAUUACGGGGU	-4.66 ± 0.2	-2.61 ± 0.19
CAAGAGCAAUAUUACGGUAC	-3.2 ± 0.26	-2.37 ± 0.21
CAAGAGCAAUAUUACGGUCG	-0.431 ± 0.05	-0.728 ± 0.065
CAAGAGCAAUAUUACGUAGU	-3.51 ± 0.2	-1.78 ± 0.19
CAAGAGCAAUAUUACGUCGU	-3.72 ± 0.23	-2.66 ± 0.25
CAAGAGCAAUAUUACGUGGU	-3.24 ± 0.11	-2.46 ± 0.16
CAAGAGCAAUAUUACGUUCU	-3.7 ± 0.27	-3.35 ± 0.23
CAAUAGCAAUAUUACGAAAU	-3.12 ± 0.15	-2.42 ± 0.23
CAAUAGCAAUAUUACGAAUA	-2.97 ± 0.39	-3.26 ± 0.32
CAAUAGCAAUAUUACGACAC	-3.61 ± 0.34	-1.88 ± 0.21
CAAUAGCAAUAUUACGACAG	-0.279 ± 0.077	0.138 ± 0.094
CAAUAGCAAUAUUACGACUA	-1.96 ± 0.36	-1.31 ± 0.27
